Results: article PMC7939381, “MMP activation–associated aminopeptidase N reveals a bivalent 14-3-3 binding motif” (The Journal of Biological Chemistry, 2020)
Primed or numbered codes have the meaning given here. Where no end group is shown, it is not given here. [ ]: non-standard residue; d: D form. The star is where a group is joined. FITC = O=C1OC2(c3ccc(O)cc3Oc3cc(O)ccc32)c2ccc(NC(=S)*)cc21; pT = C[C@@H](OP(=O)(O)O)[C@H](N)C(=O)O; pS = N[C@@H](COP(=O)(O)O)C(=O)O; PEG2″ = not defined here

B1: peptide 15, monophosphorylated APN 9-mer pThr63 (site 2) (peptide)
chain: NPASA[pT]TLD
B2: peptide 14, monophosphorylated APN 9-mer (noncanonical site of peptide 10) (peptide)
chain: TTNPASATT
modifications: also: one phosphorylated Ser/Thr within Ser61–Thr64
B3: peptide 1, APN 38–46 pSer43, as used in ITC (peptide)
peptide: NKNAN[pS]SPV
notes: aminopeptidase N (APN, CD13), human, residues 38-46; source: synthetic peptide (Fmoc SPPS, HPLC purified)
B4: acetylated (unlabeled) RAF1 peptide (peptide)
peptide: Ac-RQRST[pS]TPN
notes: source: synthetic peptide (Fmoc SPPS, HPLC purified)
B5: peptide 16, monophosphorylated APN 9-mer (noncanonical site of peptide 12) (peptide)
chain: PASATTLDQ
modifications: also: one phosphorylated Ser/Thr within Ser61–Thr64
B6: 14-3-3η, full length, N-terminally His6-tagged (natural protein, human, UniProt Q04917 1-246, looked up)
chain: MGDREQLLQRARLAEQAERYDDMASAMKAVTELNEPLSNEDRNLLSVAYKNVVGARRSSWRVISSIEQKTMADGNEKKLEKVKAYREKIEKELETVCNDVLSLLDKFLIKNCNDFQYESKVFYLKMKGDYYRYLAEVASGEKKNSVVEASEAAYKEAFEISKEQMQPTHPIRLGLALNFSVFYYEIQNAPEQACLLAKQAFDDAIAELDTLNEDSYKDSTLIMQLLRDNLTLWTSDQQDEEAGEGN
notes: 14-3-3 eta, human, full length; also called His6-14-3-3η; source: E. coli BL21(DE3), purified (HisTrap, SEC); also in E. coli cell lysate (pulldown); not shown: His6, N-terminal, kept
B7: 14-3-3σ ΔC (aa 1–231) (domain or fragment, human, UniProt P31947 1-231, looked up)
chain: MERASLIQKAKLAEQAERYEDMAAFMKGAVEKGEELSCEERNLLSVAYKNVVGGQRAAWRVLSSIEQKSNEEGSEEKGPEVREYREKVETELQGVCDTVLGLLDSHLIKEAGDAESRVFYLKMKGDYYRYLAEVATGDDKKRIIDSARSAYQEAMDISKKEMPPTNPIRLGLALNFSVFHYEIANSPEEAISLAKTTFDEAMADLHTLSEDSYKDSTLIMQLLRDNLTLWT
notes: 14-3-3 sigma (stratifin), human, C-terminally truncated, residues 1-231; One monomer per asymmetric unit; the biological dimer is generated by crystallographic symmetry; also called 14-3-3 ΔC aa 1–231; source: E. coli BL21(DE3), purified (HisTrap, TEV cleavage, reverse HisTrap, SEC); not shown: His6, N-terminal, cleaved
B8: FITC-labeled peptide 1, APN 38–46 pSer43 (peptide)
peptide: {FITC-PEG2″}-NKNAN[pS]SPV
notes: aminopeptidase N (APN, CD13), human, residues 38-46; also called site 1; source: synthetic peptide (Fmoc SPPS, HPLC purified)
B9: acetylated (label-free, unlabeled) peptide 1, APN 38–46 pSer43 (peptide)
peptide: Ac-NKNAN[pS]SPV
notes: aminopeptidase N (APN, CD13), human, residues 38-46; also called acetylated peptide 1; label-free peptide 1; source: synthetic peptide (Fmoc SPPS, HPLC purified)
B10: peptide 11, APN 36–73 pSer43 pThr63, as used in ITC and co-crystallisation (peptide, UniProt P15144 36-73, looked up)
peptide: EKNKNAN[pS]SPVASTTPSASATTNPASA[pT]TLDQSKAWNR
notes: aminopeptidase N (APN, CD13), human, residues 36-73; also called bis-phosphorylated peptide 11; source: synthetic peptide (Fmoc SPPS, HPLC purified)

Key:
[1] = biological target: B6; test: fluorescence polarisation; direct binding: dilution series of 14-3-3 protein added to FITC-labeled peptide (30 nM stock, 5 µl in 15 µl); 10 mM HEPES pH 7.4, 150 mM NaCl, 2 mM DTT, 0.01% Tween 20; 60 min at room temperature, read at 25 °C; four-parameter fit; details: both partners purified
[2] = biological target: T1, 14-3-3β/α, full length, N-terminally His6-tagged (human, UniProt P31946 1-246); test: as above; details: both partners purified
T1 construct: 14-3-3 beta/alpha, human, full length; also called His6-14-3-3β/α; source: E. coli BL21(DE3), purified (HisTrap, SEC); also in E. coli cell lysate (pulldown); not shown: His6, N-terminal, kept
T1 sequence (looked up): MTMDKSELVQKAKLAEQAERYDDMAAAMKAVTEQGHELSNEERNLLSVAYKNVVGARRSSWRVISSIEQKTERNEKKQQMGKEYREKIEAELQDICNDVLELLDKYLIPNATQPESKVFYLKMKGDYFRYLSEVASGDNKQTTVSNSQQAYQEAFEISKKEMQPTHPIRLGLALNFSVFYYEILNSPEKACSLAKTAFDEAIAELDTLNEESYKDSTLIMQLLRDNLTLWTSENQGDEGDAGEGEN

[3] = biological target: B6; test: ITC; 14-3-3η (500 µM; 250 µM for peptide 11) titrated into peptide (50 µM; 12.5 µM for peptide 11), 18 injections; 50 mM HEPES pH 7.4, 250 mM NaCl, 20 mM MgCl2; 25 °C; details: both partners purified
[4] = biological target: T2, 14-3-3σ, full length, N-terminally His6-tagged (human, UniProt P31947 1-248); test: fluorescence polarisation; competition: dilution series of acetylated peptide (starting concentration 4000 µM) added to a premixed complex of 14-3-3σ (3 µM) and FITC-labeled RAF1 tracer (30 nM); 10 mM HEPES pH 7.4, 150 mM NaCl, 2 mM DTT, 0.01% Tween 20; 25 °C; details: both partners purified
T2 construct: 14-3-3 sigma (stratifin), human, full length; no tag cleavage is described for the full-length proteins; also called stratifin; SFN; source: E. coli BL21(DE3), purified (HisTrap, SEC)
T2 sequence (looked up): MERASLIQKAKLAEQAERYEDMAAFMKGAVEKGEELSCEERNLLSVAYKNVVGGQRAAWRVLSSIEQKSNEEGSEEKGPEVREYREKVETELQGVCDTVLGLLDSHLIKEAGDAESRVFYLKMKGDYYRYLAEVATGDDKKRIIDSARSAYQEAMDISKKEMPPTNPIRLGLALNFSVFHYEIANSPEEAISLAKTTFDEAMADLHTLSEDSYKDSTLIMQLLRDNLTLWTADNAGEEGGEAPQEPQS

[5] = biological target: B3; test: ITC; 14-3-3η (500 µM; 250 µM for peptide 11) titrated into peptide (50 µM; 12.5 µM for peptide 11), 18 injections; 50 mM HEPES pH 7.4, 250 mM NaCl, 20 mM MgCl2; 25 °C; details: both partners purified
[6] = biological target: the molecule itself; test: crystal structure; 14-3-3σ ΔC (12.5 g/l) mixed 1:2 with peptide 1; sitting drops, 100 mM HEPES pH 7.3, 0.19 M CaCl2, 5% glycerol, 28% PEG400, 4 °C; space group C222(1), 1.60 Å
[7] = biological target: T3, 14-3-3ζ, full length, N-terminally His6-tagged (human, UniProt P63104 1-245); test: fluorescence polarisation; direct binding: dilution series of 14-3-3 protein added to FITC-labeled peptide (30 nM stock, 5 µl in 15 µl); 10 mM HEPES pH 7.4, 150 mM NaCl, 2 mM DTT, 0.01% Tween 20; 60 min at room temperature, read at 25 °C; four-parameter fit; details: both partners purified
T3 construct: 14-3-3 zeta, human, full length; source: E. coli BL21(DE3), purified (HisTrap, SEC)
T3 sequence (looked up): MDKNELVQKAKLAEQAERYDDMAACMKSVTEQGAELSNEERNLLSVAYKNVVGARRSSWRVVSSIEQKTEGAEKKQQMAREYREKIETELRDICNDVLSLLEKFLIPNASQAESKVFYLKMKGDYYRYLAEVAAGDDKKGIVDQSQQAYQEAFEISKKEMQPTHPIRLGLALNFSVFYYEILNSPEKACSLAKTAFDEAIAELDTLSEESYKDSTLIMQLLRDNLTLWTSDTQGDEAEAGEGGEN

[8] = biological target: T4, 14-3-3θ, full length, N-terminally His6-tagged (human, UniProt P27348 1-245); test: as above; details: both partners purified
T4 construct: 14-3-3 theta (printed as τ in the introduction, θ in the results), human, full length; also called 14-3-3τ; source: E. coli BL21(DE3), purified (HisTrap, SEC)
T4 sequence (looked up): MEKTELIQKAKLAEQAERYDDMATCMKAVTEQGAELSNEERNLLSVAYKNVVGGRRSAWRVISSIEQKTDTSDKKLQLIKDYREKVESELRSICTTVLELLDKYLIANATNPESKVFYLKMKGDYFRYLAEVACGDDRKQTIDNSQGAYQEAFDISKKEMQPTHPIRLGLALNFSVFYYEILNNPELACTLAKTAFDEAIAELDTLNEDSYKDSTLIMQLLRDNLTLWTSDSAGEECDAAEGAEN

[9] = biological target: T5, 14-3-3ε, full length, N-terminally His6-tagged (human, UniProt P62258 1-255); test: as above; details: both partners purified
T5 construct: 14-3-3 epsilon, human, full length; source: E. coli BL21(DE3), purified (HisTrap, SEC)
T5 sequence (looked up): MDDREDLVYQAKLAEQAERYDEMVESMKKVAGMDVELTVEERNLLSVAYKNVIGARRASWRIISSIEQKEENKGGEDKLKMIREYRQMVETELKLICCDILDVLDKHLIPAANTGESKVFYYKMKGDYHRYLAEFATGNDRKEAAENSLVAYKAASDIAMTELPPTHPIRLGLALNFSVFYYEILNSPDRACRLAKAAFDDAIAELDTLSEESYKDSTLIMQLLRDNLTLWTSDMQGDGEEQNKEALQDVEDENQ

[10] = biological target: T6, 14-3-3γ, full length, N-terminally His6-tagged (human, UniProt P61981 1-247); test: as above; details: both partners purified
T6 construct: 14-3-3 gamma, human, full length; source: E. coli BL21(DE3), purified (HisTrap, SEC)
T6 sequence (looked up): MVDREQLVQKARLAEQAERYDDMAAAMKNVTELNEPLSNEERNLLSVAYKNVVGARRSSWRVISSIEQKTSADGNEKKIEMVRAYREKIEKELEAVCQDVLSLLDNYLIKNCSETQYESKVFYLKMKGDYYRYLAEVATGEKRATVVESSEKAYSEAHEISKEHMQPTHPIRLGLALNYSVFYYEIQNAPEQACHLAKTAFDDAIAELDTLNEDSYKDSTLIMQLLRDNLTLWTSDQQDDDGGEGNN

[11] = biological target: T2, 14-3-3σ, full length, N-terminally …; test: as above; details: both partners purified
14-3-3σ ΔC (aa 1–231) = biological target: B7; test: crystal structure; 14-3-3σ ΔC co-crystallised with peptide 11; sitting drops, 100 mM HEPES pH 7.7, 0.19 M CaCl2, 5% glycerol, 27% PEG400; space group C222(1), 1.20 Å; also solved in P1; details: both partners purified

Binder: B1
- Kd [1]: > 40 µM
- Kd [2]: > 40 µM

Binder: B2
- Kd [1]: > 40 µM
- Kd [2]: > 40 µM

Binder: B3
- Kd [3]: 2.18 µM

Binder: B4
- IC50 [4]: 13.4 ± 0.7 µM

Binder: B5
- Kd [1]: > 40 µM
- Kd [2]: > 40 µM

Binder: B6
- stoichiometry N [5]: 1.05

Binder: B7
- binding result [6]: binds

Binder: B8
- binding result [7]: binds
- binding result [8]: binds
- Kd [1]: 0.32 ± 0.04 µM
- binding result [9]: binds
- binding result [10]: binds
- Kd [11]: 1.7 ± 0.1 µM

Binder: B9
- IC50 [4]: 18.8 ± 1.5 µM

Binder: B10
- binding result (14-3-3σ ΔC (aa 1–231)): binds
